Source: patent US10172951B2, “Dendrimer based nanodevices for therapeutic and imaging purposes” (priority 2009, dated 2019)

Assays:
[1] = GSH triggered NAC release from PAMAM dendrimer-NAC conjugates (RP-HPLC); format: physicochemical; conditions: for amount released: over 20 hours
Method: (§1) Appropriate amounts of PAMAM-S—S-NAC conjugate were dissolved in release media (Citrate or PBS buffers) to form a solution of 1 mg/ml PAMAM-S—S-NAC. One of the thiol containing molecules (GSH, Cys or BSA) was added to the conjugates to form 10 mM, 2 mM, 0.5 mM 0.1 mM or 2 μM overall thiol group concentrations and to initiate the release of NAC. All samples were run as triplicates for statistical analysis.
As control samples, conjugates were analyzed in both release media in the absence of reducing agents. The solutions were kept at 37° C. and stirred continuously. At predetermined time intervals, […] of samples were withdrawn and immediately analyzed with RP-HPLC and the concentrations of analytes were determined by using appropriate calibrations prepared under same conditions.
Dendrimer NAC conjugates were analyzed for their drug release mechanism and kinetics in the presence of GSH, Cys and BSA. Buffer solutions with pH 5 (Citrate Buffer) and pH 7.4 (Phosphate Buffered Saline) containing various concentrations of these thiol containing moieties were used in release studies.
All GSH concentrations studied were between average plasma (2 μM) and intracellular (2-10 mM) GSH levels. Various GSH concentrations were used in order to determine the GSH dependent release kinetics of the conjugate. The conjugate solutions contained 730 μM NAC in the conjugated form (1 mg/ml PAMAM-S—S-NAC) at the beginning of the release studies. GSH concentration in the release media was compared to the conjugated NAC concentrations in the release solutions for analysis of the release kinetics and mechanism.
The release of NAC from the conjugates was investigated in the presence of GSH at intracellular and extracellular concentrations. It was assumed that the release of NAC would occur by the disulfide exchange reaction. GSH and its oxidized form (GSSG) are responsible for forming the intracellular redox buffer. Intracellularly, GSH takes the role of attacking thiolate moiety and gets oxidized in the process while cleaving the existing disulfide bonds.
The conjugates were also analyzed in the absence of GSH to verify the stability of the disulfide linkage at physiological pH. […] The extent of the release of drug from both dendrimer-NAC conjugates was also analyzed at plasma and intracellular GSH concentrations. The conjugates and the GSH in required amounts were added to PBS solution, and the solution was analyzed at various time intervals by HPLC for up to 17 hours. UV absorbance peak areas were used to determine the concentrations of each of the species in the solution, based on appropriate calibration curves.

[2] = Cysteine triggered NAC release from PAMAM-S-S-NAC; format: physicochemical; conditions: pH 7.4
Method: as §1

[3] = Stability of conjugate in bovine serum albumin (BSA) solution; format: physicochemical; conditions: pH 7.4 and pH 5, over 24 hours
Description: To investigate the reducing activity of Cys in protein structures, bovine serum albumin (BSA) was chosen for release studies since it is the most abundant protein in plasma. Additionally, for intravenous administration of conjugates, it is important for the drug to stay intact with the carrier until the conjugate reaches its final destination within the body. Thus the release characteristic in the presence of albumin is crucial for intravenous applications. The release studies in the presence of BSA were carried out at pH 7.4 and pH 5 as well. The BSA concentrations used for the studies were adjusted so that the overall Cys concentrations in BSA release media were the same as the GSH and Cys release studies, discussed earlier. In addition to the five thiol concentrations studied, the stability of the conjugate at plasma BSA concentration was also analyzed.

[4] = system: Mouse microglial cell line (BV-2); assay: In vitro cytotoxicity, MTT assay (Example 19)
Description: In vitro cytotoxicity of the conjugate, dendrimer and NAC, at conditions similar to that used in the efficacy assays, was investigated by MTT assay. Mouse microglial cell line (BV-2) was obtained from Children's Hospital of Michigan Cell Culture Facility. These cells were used because the eventual in vivo applications seek to target microglial cells that become activated as a result of neuroinflammation.
The lipopolysaccharide (LPS) was used to activate the cells for the ROS assay. For the cytotoxicity study, the LPS treatment was continuous for 24 hours. For both groups, the LPS concentration used was 100 ng/ml. Three concentrations of NAC were studied: 0.5 mM, 2 mM and 8 mM. For the conjugate assays, the concentrations used corresponded to equivalent NAC doses of the free drug treatment groups. Similarly, the dendrimer assays were run by using dendrimer concentrations that were equivalent to conjugate treatments. Control groups included cells receiving only LPS and no other treatment and cells with no LPS or other treatment. The proportion of viable cells in the treated group was compared to that of negative control. The cell viability is expressed as mean±SD of three samples per group, and assessed by t-test.

[5] = system: BV-2 cells; assay: ROS assay, percent reduction in H2O2 in LPS-treated BV-2 cells (Example 19); format: cell-based, mouse; conditions: for reduction in H2O2 levels: 0.5 mM NAC (equivalent), co-treatment with LPS
Method: Cells were treated with lipopolysaccharide (LPS) to induce the production of ROS. The cells were treated with LPS (100 ng/ml) and either NAC, PAMAM-S—S-NAC, or free PAMAM-NH2 dendrimers at appropriate concentrations to study the efficacy of the conjugates for reducing the ROS concentrations. In order to quantify the efficacy of conjugates, H2O2 released from BV-2 cells (ROS) was measured using the Amplex Red Hydrogen Peroxide/Peroxidase Assay Kit using previously established procedures.

[6] = Solubility in PBS/H2O; format: physicochemical
[7] = 10 mM GSH, PBS pH 7.4, within 1 hour
[8] = 10 mM GSH, after the initial 1 hour release (time not given)

PAMAM-NH—CO-Ethyl-S—S-NAC [PAMAM-S—S-NAC]
NAC payload in GS-S-NAC (NAC-GSH) form [1, 7]: 19% | NAC payload released in free form [1, 7]: 47% | total NAC release [1, 7]: 66% | NAC payload as GS-S-NAC [1, 8]: 14% | NAC payload in free form [1, 8]: 41% | NAC release ([1]; PBS buffer without GSH, 17 hours): did not release any of the NAC they carried | duration of sustained drug release ([1]; lysosomal pH): about 8 hours | NAC release ([1]; pH 5, 2 μM GSH, within 20 hours): no significant amount NAC was released | amount released ([1]; pH 5, 100 μM GSH): 15% | amount released ([1]; pH 5, 500 μM GSH): 58% | time to nearly completed release ([1]; pH 5, 2000 μM GSH): up to 20 hours | time to nearly completed release ([1]; pH 5, 10,000 μM GSH): ≤ 7 h | maximum extent of payload release ([1]; pH 5.0, intracellular GSH concentrations): about 90% | NAC payload released ([1]; pH 5, intracellular GSH concentrations (excess), within 20 hours): 95% | NAC release ([1]; pH 5, no GSH): did not release any NAC | NAC release ([1]; pH 7.4, 2 μM GSH): no detectable level of NAC released | NAC release ([1]; pH 7.4, 100 μM GSH): 6% | NAC release ([1]; pH 7.4, 500 μM GSH): 31% | payload released ([1]; pH 7.4, 2000 μM GSH): 60% | payload released ([1]; pH 7.4, 10,000 μM GSH): 66% | NAC release ([1]; pH 7.4, absence of GSH, within 3 days): did not release any NAC | maximum extent of payload release ([1]; pH 7.4, intracellular GSH concentrations): approximately 65% | drug released ([1]; pH 7.4, intracellular GSH levels, in less than two hours): More than 60% | NAC payload found as GS-S-NAC or NAC-NAC ([1]; plasma GSH concentration (2 μM)): 1% | release of free NAC ([1]; plasma GSH concentration (2 μM), 17 hours): did not release any detectable levels of free NAC | rate of NAC release with Cys compared to GSH [2]: slightly faster rates | NAC release in presence of BSA [3]: no NAC being released | cell survival rate ([4]; highest dose): 84% | cell survival rate ([4]; lowest concentration of the conjugate): greater than 95% | reduction in H2O2 levels ([5]; 24 hours): 72% | reduction in H2O2 levels ([5]; 72 hours): 101% | reduction in effective dose ([5]; 3 hours of treatment, lower drug doses (0.5 mM and 2 mM)): ≤ 4 fold | reduction of effective dose of NAC ([5]; continuous treatment, 0.5 mM conjugate vs 8 mM free NAC): about 16 times | Solubility in PBS/H2O [6]: Highly
